Laboratory results as given in paper PMC9481576.

The substances below were run against human α-thrombin (human) (UniProt P00734) (assay: enzyme inhibition assay (chromogenic thrombin amidolytic activity); 0.14 nM human α-thrombin, 100 μM N-(p-Tosyl)-GPR-pNA, varying concentrations of inhibitor; 50 mM Tris-HCl, 50 mM NaCl, pH 8; absorption at 405 nm; Ki from a Morrison equation).
Substance “chimadanin sulfated at both Tyr28 and Tyr31 (natural protein)” has a Ki of 0.1 nM. “chimadanin with sTyr at Tyr28 (natural protein)” showed a Ki of 0.6 nM. For “chimadanin with sTyr at Tyr31 (natural protein)”, the Ki was 1.5 nM. Substance “madanin-1 sulfated at both Tyr32 and Tyr35 (natural protein)” has a Ki of 0.5 nM. In the case of “madanin-1 with sTyr at Tyr32 (natural protein)”, the Ki is reported as 1.3 nM. “madanin-1 with sTyr at Tyr35 (natural protein)” showed a Ki of 6.1 nM. wildtype chimadanin (natural protein) gave a Ki of 12.9 nM. With wildtype madanin-1 (natural protein) the Ki was 16 nM.
